According to patent US20250122303A1, “TREATMENT AND PREVENTION OF CANCER USING HER3 ANTIGEN-BINDING MOLECULES” (Hummingbird Bioscience Pte. Ltd., priority 2021, published 2025):

B1: MM-121 (antibody, INN chains, looked up, human IgG2)
heavy: EVQLLESGGGLVQPGGSLRLSCAASGFTFSHYVMAWVRQAPGKGLEWVSSISSSGGWTLYADSVKGRFTISRDNSKNTLYLQMNSLRAEDTAVYYCTRGLKMATIFDYWGQGTLVTVSSASTKGPSVFPLAPCSRSTSESTAALGCLVKDYFPEPVTVSWNSGALTSGVHTFPAVLQSSGLYSLSSVVTVPSSNFGTQTYTCNVDHKPSNTKVDKTVERKCCVECPPCPAPPVAGPSVFLFPPKPKDTLMISRTPEVTCVVVDVSHEDPEVQFNWYVDGVEVHNAKTKPREEQFNSTFRVVSVLTVVHQDWLNGKEYKCKVSNKGLPAPIEKTISKTKGQPREPQVYTLPPSREEMTKNQVSLTCLVKGFYPSDIAVEWESNGQPENNYKTTPPMLDSDGSFFLYSKLTVDKSRWQQGNVFSCSVMHEALHNHYTQKSLSLSPG
light: QSALTQPASVSGSPGQSITISCTGTSSDVGSYNVVSWYQQHPGKAPKLIIYEVSQRPSGVSNRFSGSKSGNTASLTISGLQTEDEADYYCCSYAGSSIFVIFGGGTKVTVLGQPKAAPSVTLFPPSSEELQANKATLVCLVSDFYPGAVTVAWKADGSPVKVGVETTKPSKQSNNKYAASSYLSLTPEQWKSHRSYSCRVTHEGSTVEKTVAPAECS
B2: LJM716 (antibody, INN chains, looked up, human IgG1, V domains shown)
VH: EVQLLESGGGLVQPGGSLRLSCAASGFTFSSYAMSWVRQAPGKGLEWVSAINSQGKSTYYADSVKGRFTISRDNSKNTLYLQMNSLRAEDTAVYYCARWGDEGFDIWGQGTLVTVSS
VL: DIQMTQSPSSLSASVGDRVTITCRASQGISNWLAWYQQKPGKAPKLLIYGASSLQSGVPSRFSGSGSGTDFTLTISSLQPEDFATYYCQQYSSFPTTFGQGTKVEIK

Key:
moFcRn (mouse) = moFcRn (mouse) (UniProt Q61559); experiment: Bio-Layer Interferometry (determined as described in Example 7)
FcRn (human) = FcRn (human) (UniProt P55899); experiment: as above
[1] = target: His-tagged FcγRIIIa (V158) (human) (UniProt P08637); experiment: as above
FcgRIIA (H167) (human) = FcgRIIA (H167) (human) (UniProt P12318); experiment: as above
FcgRIIA (H167) (human), sequence (P12318 36-218 limits assumed): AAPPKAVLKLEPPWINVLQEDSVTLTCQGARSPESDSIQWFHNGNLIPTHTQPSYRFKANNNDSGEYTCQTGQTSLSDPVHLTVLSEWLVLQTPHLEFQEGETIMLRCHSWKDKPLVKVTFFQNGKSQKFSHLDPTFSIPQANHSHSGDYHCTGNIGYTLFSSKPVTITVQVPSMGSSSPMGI

FcgRIIA (R167) (human) = FcgRIIA (R167) (human) (UniProt P12318); experiment: as above
FcgRIIA (R167) (human), sequence (P12318 36-218 H167R limits assumed): as the sequence (P12318 36-218 limits assumed) above, with H132R counted along it

FcgRIIB (human) = FcgRIIB (human) (UniProt P31994); experiment: as above
FcgRIIB (human), sequence (P31994 46-217 limits assumed): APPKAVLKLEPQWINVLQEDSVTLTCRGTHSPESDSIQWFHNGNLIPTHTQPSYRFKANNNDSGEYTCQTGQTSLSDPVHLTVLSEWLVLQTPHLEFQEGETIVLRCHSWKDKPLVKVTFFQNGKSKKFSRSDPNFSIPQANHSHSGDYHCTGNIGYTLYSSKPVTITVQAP

[2] = target: His-tagged human HER3 (human) (UniProt P21860); experiment: BLI competition: His-tagged human HER3 on anti-Penta-HIS tips saturated with LJM-716 (400 nM), then MM-121 as competing antibody (300 nM); no unit in the table, the y axis of FIG. 14A is Shift (nm)
[3] = target: human HER3:human NRG1 complex (human) (UniProt P21860); experiment: BLI (Octet QK384), antibody captured on AHC sensors, HER3-NRG1 complex (1:1 molar ratio) in solution
[4] = target: recombinant biotinylated human HER3 protein (human) (UniProt P21860); experiment: plate ELISA dimerisation assay; human EGFR-His coated, constant HER3-biotin and NRG, antibody varied; blocked partner EGFR-His

| Binder | Kd (moFcRn (mouse)) | Kd (FcRn (human)) | Kd [1] | Kd (FcgRIIA (H167) (human)) | Kd (FcgRIIA (R167) (human)) | Kd (FcgRIIB (human)) | response of the competing antibody (competition table) [2] | Kd [3] | koff [3] | kon [3] | IC50 [4] |
| --- | --- | --- | --- | --- | --- | --- | --- | --- | --- | --- | --- |
| B1 | 6.69 nM | 11.5 nM | 7.05 µM | 222 nM | 243 nM | 1440 nM | 0.693 | 1.92 nM | 0.000231 s⁻¹ | 120000 M⁻¹ s⁻¹ | 54.2 nM |
| B2 |  |  |  |  |  |  |  | 16.8 nM |  |  |  |
